# Publication PMC8420761
# Target: Mycobacterium tuberculosis H37Rv HigA2 antitoxin (Mycobacterium tuberculosis H37Rv) (UniProt O53467)
# Assay: not stated; in solution; purified MtHigA2
substance,measurement,value
Mycobacterium tuberculosis H37Rv HigA2 antitoxin (from UniProt O53467 1-101) (natural protein),stoichiometry N,2
